From US20140005125A1 (Molecular Partners, published 2014)

Legend:
[1] = molecular target: T1, Recombinant human PDGF-BB (human, UniProt P01127 82-190); test: cell-based or functional assay
[2] = molecular target: T1, Recombinant human PDGF-BB; test: receptor competition ELISA: DARPin preincubated with PDGF-BB, free PDGF-BB captured on coated PDGFRbeta/Fc; mean IC50
Experimental: (§1) The potency of PEGylated anti-PDGF-BB DARPins to inhibit the binding of human PDGF-BB to its receptor PDGFRbeta was determined in a in a receptor competition ELISA (based on PDGF-BB Quantikine, R&D Systems). PDGFRbeta/Fc chimera has been precoated on a microplate. The DARPins were preincubated in assay diluent from the PDGF-BB Quantikine kit (R&D Systems) with a defined amount of PDGF-BB and incubated at room temperature for 2 hours with shaking at 750 rpm. These preincubation mixtures were then transferred into the precoated wells and any PDGF-BB that is not blocked by the DARPins was bound by the immobilized receptor. After washing away any unbound substances, a horse radish peroxidase-linked polyclonal antibody specific for PDGF-BB was added to the wells. Following a wash to remove any unbound antibody-enzyme reagent, a substrate solution was added to the wells and color was developing in proportion to the amount of PDGF-BB bound. The color development was stopped and the intensity of the color was measured at […]. Example titration curves are given for a set of DARPins in FIG. 2. IC₅₀ values were calculated from such titration curves obtained as described above using Graph Pad Prism software and standard procedures known to the person skilled in the art.

[3] = molecular target: T1, Recombinant human PDGF-BB; test: SPR (ProteOn), biotinylated PDGF-BB on neutravidin chip, DARPin injected; Kd from on- and off-rates
Experimental: (§2) Biotinylated PDGF-BB molecules from human and mouse were immobilized in a flow cell through binding to coated […] and the interaction with various selected DARPins was analyzed.
(§3) SPR was measured using a ProteOn instrument (BioRad) and measurement was performed according standard procedures known to the person skilled in the art. The running buffer was PBS, pH 7.4, containing 0.005% Tween 20®. Neutravidin was covalently immobilized on a GLC chip (BioRad) to a level of about 8000 resonance units (RU). Immobilization of PDGF-BB on the neutravidin coated chip was then performed. The interaction of DARPin PDGF-BB was then measured by injecting 100 μl running buffer (PBS containing 0.005% Tween®) containing serial dilutions of DARPins of concentration of […] (on-rate measurement), followed by a running buffer flow for between 10 minutes and up to 3 hours at a constant flow rate of 30 μl/min (off-rate measurement). The signals (i.e. resonance unit (RU) values) of an uncoated reference cell and a reference injection (i.e. injection of running buffer only) were subtracted from the RU traces obtained after injection of […] (double-referencing). From the SRP traces obtained from the on-rate and off-rate measurements the on- and off-rate of the corresponding DARPin PDGF-BB interaction can be determined.
(§4) Dissociation constants (Kd) were calculated from the estimated on- and off-rates using standard procedures known to the person skilled in the art.

[4] = molecular target: T1, Recombinant human PDGF-BB; test: receptor competition ELISA (PDGFRbeta), distinct single experiment of FIG. 2
Experimental: The inhibition of the binding of PDGF-BB to PDGFRbeta by various concentrations of DARPins with specificity for PDGF-BB and the corresponding fitted inhibition curves are shown for a distinct single experiment. The IC₅₀ values were then calculated to be about 20 and 18 pM for the DARPins #50 (D1) and #28 (D2), respectively. OD, optical density at 450 nm; C, concentration of DARPins in pM. The X axis is shown in logarithmic scale. See below for the definitions of DARPin #50 and 28.
as §1, with “After washing away any unbound substances, a horse radish peroxidase-linked polyclonal antibody specific for PDGF-BB was added to the wells. Following a wash to remove any unbound antibody-enzyme reagent, a substrate solution was added to the wells and color was developing in proportion to the amount of PDGF-BB bound.” left out, “Example titration curves are given for a set of DARPins in FIG. 2.” left out

[5] = molecular target: T2, Recombinant murine PDGF-BB (mouse, UniProt P31240 82-190, limits assumed); test: SPR (ProteOn), biotinylated PDGF-BB on neutravidin chip, DARPin injected; Kd from on- and off-rates
T2 construct: For SPR chemically biotinylated on primary amines and captured on neutravidin; also called mouse PDGF-BB; PDGF-BB (mouse)
Experimental: as §2, §3, §4

T1 sequence (P01127 82-190 limits assumed): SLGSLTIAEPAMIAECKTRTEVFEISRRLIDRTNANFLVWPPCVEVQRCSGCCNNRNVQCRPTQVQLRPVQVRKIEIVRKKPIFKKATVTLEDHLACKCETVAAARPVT
T2 sequence (P31240 82-190 limits assumed): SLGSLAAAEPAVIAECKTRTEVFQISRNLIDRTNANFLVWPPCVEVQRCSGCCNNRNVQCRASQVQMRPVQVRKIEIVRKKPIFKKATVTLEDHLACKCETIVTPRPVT

| Binder | IC50 of inhibition of NIH-3T3 cell proliferation (WST-1) [1] | IC50 [2] | Kd [3] | IC50 [4] | Kd [5] |
| --- | --- | --- | --- | --- | --- |
| DARPin #24 (designed binder) MRGSHHHHHHGSDLGKKLLEAARAGQDDEVRELLKAGADVNAKDEEGTTPLHYAAVWGHLEIVEVLLKAGADVNAQDIYGATPADLAALVGHEDIAEVLQKLN | 1400 pM | 15 pM | 30.1 pM |  |  |
| DARPin #28 (designed binder) MRGSHHHHHHGSDLGKKLLEAARAGQDDEVRILMANGADVNAKDEEGTTPLHYAAVWGHLEIVEVLLKAGADVNAQDIYGATPADLAALVGHEDIAEVLQKLN | 1600 pM | 16 pM | 17.1 pM | ~18 pM |  |
| DARPin #30 (designed binder) MRGSHHHHHHGSDLGKKLLEAARAGQDDEVRELLKAGADVNAKDEEGTTPLHYAAVYGHLEIVEVLLKAGADVNAQDIYGATPADLAALVGHEDIAEVLQKLN | 3200 pM | 490 pM | 110 pM |  |  |
| DARPin #38 (designed binder) MRGSHHHHHHGSDLGDKLLWAAKHGQDDEVRILLAAGADVNAKDDEGSTPLHYAAVWGHLETVEVLLKAGADVNAQDIWGATPADLAALLGHEDIAEVLQKLN |  | 85 pM | 94.1 pM |  | 58.3 pM |
| DARPin #49 (designed binder) MRGSHHHHHHGSDLGKKLLEAARAGQDDEVRILMANGADVNAQDLNGQTPLHLAADIGHLEIVEVLLKHGADVNAQDYAGSTPLRLAAWAGHLEIVEVLLKNGADVNANDYFGYTPLHLAAYFGHLEIVDVLLKHGADVNAQDKFGKTAFDISIDNGNEDLAEILQKLN | 1900 pM | 66 pM | 76.9 pM |  | 102 pM |
| DARPin #50 (designed binder) MRGSHHHHHHGSDLGKKLLEAARAGQDDEVRELLKAGADVNAKDLNGQTPLHLAADIGHLEIVEVLLKAGADVNAKDYAGSTPLRLAAWAGHLEIVEVLLKAGADVNAKDYFGYTPLHLAAYFGHLEIVEVLLKAGADVNAQDKFGKTAFDISIDNGNEDLAEILQKLN |  | 32 pM | 115 pM | ~20 pM |  |
| DARPin #59 (designed binder) MRGSHHHHHHGSDLGKKLLEAARAGQGDEVHILMANGADVNAQDLNGQTPLHLAADIGHLEIVEVLLKHGADVNAQDYAGSTPLRLAAWAGHLEIVEVLLKNGADVNANDYFGYTPLHLAAYFGHLEIVEVLLKHGADVNAQDKFGKTAFDISIDNGNEDLAEILQKLN | 2000 pM |  | 171 pM |  |  |
| DARPin #34 (designed binder) MRGSHHHHHHGSDLGDKLLQSDLGRKLLHAARSGQDDEVRILLAAGADVNAKDEDGTTPLHYAAAWGHLEIVEVLLKAGADVNAQDIYGATPADLAAYIGHEDIAEVLQKLN |  | 210 pM | 77.5 pM |  | 59.2 pM |
| DARPin #44 (designed binder) MRGSHHHHHHGSDLGAKLLHAAVVGQDDEVRILLAAGADVNAKDKSGHTPLHLAAYSGHLEIVEVLLKAGADVNAKDQEGTTPLHFAASVGHLEIVEVLLKAGADVNAQDHYGATPADLAALIGHEDIAEVLQKLN |  | 130 pM | 76.8 pM |  | 90.2 pM |
